# Source: IntAct's records for PubMed 22609948
# B1: Segment polarity protein dishevelled homolog DVL-2 (Mus musculus), Q60838 (parent)
# chain: MAGSSAGGGGVGETKVIYHLDEEETPYLVKIPVPAERITLGDFKSVLQRPAGAKYFFKSMDQDFGVVKEEISDDNARLPCFNGRVVSWLVSSDTPQPEVAPPAHESRTELVPPPPPLPPLPPERTSGIGDSRPPSFHPNVSSSHENLEPETETESVVSLRRDRPRRRDSSEHGAGGHRPGGPSRLERHLAGYESSSTLMTSELESTSLGDSDEDDTMSRFSSSTEQSSASRLLKRHRRRRKQRPPRMERTSSFSSVTDSTMSLNIITVTLNMEKYNFLGISIVGQSNERGDGGIYIGSIMKGGAVAADGRIEPGDMLLQVNDMNFENMSNDDAVRVLRDIVHKPGPIVLTVAKCWDPSPQAYFTLPRNEPIQPIDPAAWVSHSAALTGAFPAYPGSSSMSTITSGSSLPDGCEGRGLSVHMDMASVTKAMAAPESGLEVRDRMWLKITIPNAFLGSDVVDWLYHHVEGFPERREARKYASGLLKAGLIRHTVNKITFSEQCYYVFGDLSGGCESYLVNLSLNDNDGSSGASDQDTLAPLPGATPWPLLPTFSYQYPAPHPYSPQPPPYHELSSYTYGGGSASSQHSEGSRSSGSTRSDGGAGRTGRPEERAPESKSGSGSESELSSRGGSLRRGGEPGGTGDGGPPPSRGSTGAPPNLRALPGLHPYGAPSGMALPYNPMMVVMMPPPPPPVSTAVQPPGAPPVRDLGSVPPELTASRQSFHMAMGNPSEFFVDVM
# Variants of: B1
# Conditions: with plk1_human PLK1, P53350
# Chain of plk1_human PLK1, P53350 (P53350 whole entry): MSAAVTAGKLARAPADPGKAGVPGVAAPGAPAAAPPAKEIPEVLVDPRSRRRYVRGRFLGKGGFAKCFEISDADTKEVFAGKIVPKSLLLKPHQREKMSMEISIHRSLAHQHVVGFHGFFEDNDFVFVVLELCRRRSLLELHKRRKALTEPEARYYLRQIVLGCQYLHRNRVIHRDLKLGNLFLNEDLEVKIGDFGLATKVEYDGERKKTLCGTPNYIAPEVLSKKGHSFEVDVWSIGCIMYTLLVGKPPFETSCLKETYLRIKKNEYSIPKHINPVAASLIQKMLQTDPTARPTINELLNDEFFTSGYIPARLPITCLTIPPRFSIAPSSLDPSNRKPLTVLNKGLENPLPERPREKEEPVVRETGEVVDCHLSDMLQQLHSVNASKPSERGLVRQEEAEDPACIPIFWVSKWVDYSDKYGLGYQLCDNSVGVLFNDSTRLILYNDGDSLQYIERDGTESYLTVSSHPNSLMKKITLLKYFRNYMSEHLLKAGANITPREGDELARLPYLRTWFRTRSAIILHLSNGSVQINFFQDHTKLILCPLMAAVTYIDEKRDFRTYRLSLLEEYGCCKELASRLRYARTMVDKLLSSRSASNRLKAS
row,Variant,effect of a mutation on the interaction
1,T224A,decreasing interaction

# Variants of: B1
# Conditions: with plk1_human PLK1, P53350
# Remark: another data set of the same source
row,Variant,effect of a mutation on the interaction
1,S398A,decreasing interaction

# Variants of: B1
# Conditions: with plk1_human PLK1, P53350
# Remark: another data set of the same source
row,Variant,effect of a mutation on the interaction
1,S143A,disrupting interaction

# Variants of: B1
# Conditions: with plk1_human PLK1, P53350
# Remark: another data set of the same source
row,Variant,effect of a mutation on the interaction
1,S143D,disrupting interaction

# Variants of: B1
# Conditions: with plk1_human PLK1, P53350
# Remark: another data set of the same source
row,Variant,effect of a mutation on the interaction
1,T224E,decreasing interaction

# Variants of: B1
# Conditions: with plk1_human PLK1, P53350
# Remark: another data set of the same source
row,Variant,effect of a mutation on the interaction
1,T224D,disrupting interaction
